The target of experiment [1] is T1, myostatin (UniProt O14793 267-375).
T1 sequence (looked up): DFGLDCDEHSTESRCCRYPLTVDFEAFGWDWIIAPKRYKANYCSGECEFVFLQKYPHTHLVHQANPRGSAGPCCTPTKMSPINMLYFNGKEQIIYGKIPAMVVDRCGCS
Description: Biacore SPR, 25 C; Fc fusion captured with mouse antibody capture kit, ligand as soluble analyte. The text has this: (§1) Specifically, commercially available follistatins (FS315, manufactured by R&D Systems and follistatin-Fc human chimera FS315-hFc, manufactured by Sino Biological), and FS315-GAG3-mFc fusion proteins were used to assess binding affinity and kinetics to activin, myostatin, and BMPs using Biacore assays. Briefly, FS315 was immobilized onto a CM5 chip, and follistatin-Fc fusion proteins were captured using human or mouse antibody capture kits (GE Healthcare). Post amine-coupling, a concentration series of activin, myostatin, or BMPs (e.g., BMP-2, -4, -6, -7, -9, -10, and GDF-1) was added as soluble analyte at 25° C. sActRTIB-hFc was used as a control. Binding affinities (Kd) and kinetics were determined using standard methods.

The target in another experiment is T2, BMP-4 (UniProt P12644 293-408).
T2 sequence (looked up): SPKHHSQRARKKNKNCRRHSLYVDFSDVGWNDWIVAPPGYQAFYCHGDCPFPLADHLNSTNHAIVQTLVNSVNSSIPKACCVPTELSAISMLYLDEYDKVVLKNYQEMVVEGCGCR
Described as above.
Text: as §1

For experiment [2], the target named is T3, activin (UniProt P08476 311-426).
T3 construct: also called activin A
T3 sequence (looked up): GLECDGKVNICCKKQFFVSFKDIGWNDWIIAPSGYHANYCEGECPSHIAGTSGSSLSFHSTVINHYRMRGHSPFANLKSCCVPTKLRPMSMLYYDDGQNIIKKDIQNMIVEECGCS
The description is as above.
Text: as §1

In a further experiment the target is T4, GDF-11 (UniProt O95390 299-407).
T4 sequence (looked up): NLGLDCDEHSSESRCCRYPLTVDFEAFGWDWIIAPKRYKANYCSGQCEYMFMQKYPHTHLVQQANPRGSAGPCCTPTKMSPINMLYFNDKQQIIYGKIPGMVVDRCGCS
The description is as above.
Text: as §1

The target of the next experiment is T5, BMP-9 (UniProt Q9UK05 320-429).
T5 sequence (looked up): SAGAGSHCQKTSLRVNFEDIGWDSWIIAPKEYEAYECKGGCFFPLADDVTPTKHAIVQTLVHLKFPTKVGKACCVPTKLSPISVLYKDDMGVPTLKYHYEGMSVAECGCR
As to the kind of experiment: Biacore SPR, 25 C; Fc fusion captured with antibody capture kit, ligand as soluble analyte.
Text: as §1
For orientation: Surface plasmon resonance follows binding to a sensor surface in real time, without labels.

The target in another experiment is T6, BMP-10 (UniProt O95393 317-424).
T6 sequence (looked up): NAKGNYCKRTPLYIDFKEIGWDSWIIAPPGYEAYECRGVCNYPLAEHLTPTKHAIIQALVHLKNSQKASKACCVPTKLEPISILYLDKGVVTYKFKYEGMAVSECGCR
The description is as above.
Text: as §1

A further experiment addresses BMP-2 (UniProt P12643 283-396). The experiment is described as above.
Text: as §1

In experiment [3] the target is T1, myostatin. Description: cell-based or functional assay.
Experiment [4] deals with T1, myostatin. Description: cell-based or functional assay. This is another data set of the same source.
The target of experiment [5] is T3, activin. As to the kind of experiment: cell-based or functional assay.
The target of experiment [6] is T1, myostatin. Description: Biacore SPR (Table 3).
Text: as §1

Sequence of BMP-2 (P12643 283-396 limits assumed): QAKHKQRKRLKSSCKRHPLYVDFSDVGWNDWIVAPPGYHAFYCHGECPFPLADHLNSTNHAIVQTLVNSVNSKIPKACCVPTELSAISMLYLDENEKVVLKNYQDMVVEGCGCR

B1: FS315-GAG3-mFc (Fc fusion)
chain: GNCWLRQAKNGRCQVLYKTELSKEECCSTGRLSTSWTEEDVNDNTLFKWMIFNGGAPNCIPCKETCENVDCGPGKKCRMNKKNKPRCVCAPDCSNITWKGPVCGLDGKTYRNECALLKARCKEQPELEVQYQGRCKKTCRDVFCPGSSTCVVDQTNNAYCVTCNRICPEPASSEQYLCGNDGVTYSSACHLRKATCLLGRSIGLAYEGKCIKAKSCEDIQCTGGKKCLWDFKVGRGRCSLCDELCPDSKSDEPVCASDNATYASECAMKEAACSSGVLLEVKHSGSCNSISEDTEEEEEDEDQDYSFPISSILEWGAPGGGGGAAAAAGGGGGGAPGGGGGAAAAAGGGGGGAPGGGGGAAAAAGGGGGGAPGCKPCICTVPEVSSVFIFPPKPKDVLTITLTPKVTCVVVDISKDDPEVQFSWFVDDVEVHTAQTQPREEQFNSTFRSVSELPIMHQDWLNGKEFKCRVNSAAFPAPIEKTISKTKGRPKAPQVYTIPPPKEQMAKDKVSLTCMITDFFPEDITVEWQWNGQPAENYKNTQPIMDTDGSYFVYSKLNVQKSNWEAGNTFTCSVLHEGLHNHHTEKSLSHSPGK
notes: also called FS315-mFc; FS315-Fc
In general, Kd refers to a measure of binding affinity in units of concentration. The low end stands for tighter binding, the high end for weaker binding. B1: the Kd with myostatin [1] was found to be 0.073 pM; in the experiment with BMP-4, 81000 pM; with activin [2] it was 0.038 pM; with GDF-11 it was 0.018 pM. Moreover, the binding result with BMP-9, in the experiment with BMP-10 and with BMP-2 was “no binding” in each case. In addition, the “IC50 (read off the curve); CAGA-luciferase reporter in HEK293 cells, myostatin (1.2 nM)-induced Smad2/3 signalling” value in the experiment with myostatin [3] was approximately 300 pM. In the experiment with myostatin [4], the “IC50, CAGA-luciferase reporter assay for Smad2/3 signaling (1.2 nM myostatin)” value was determined as 460 pM. Besides, in the experiment with activin [5], the “IC50, CAGA-luciferase reporter assay for Smad2/3 signaling (1.2 nM activin)” value came out at 360 pM. Besides, the “fold increase of binding affinity against follistatin (FS315)” value in the experiment with myostatin [6] is not below 10 fold.

Source of the values: patent publication US20180305421A1 (SHIRE HUMAN GENETIC THERAPIES, published 2018).
